System: dimethylated casein and monodansylcadaverine
Experiment: Effect of NaCl and Ca2+ on enzyme activity
Assay type: biochemical
Settings: increasing NaCl concentration

B1: transglutaminase originating from a microorganism: TGase originating from a microorganism; probably the Streptoverticillium calcium-independent BTG (protein, UniProt P81453 77-407, looked up)
Protein-glutamine …: DSDDRVTPPAEPLDRMPDPYRPSYGRAETVVNNYIRKWQQVYSHRDGRKQQMTEEQREWLSYGCVGVTWVNSGQYPTNRLAFASFDEDRFKNELKNGRPRSGETRAEFEGRVAKESFDEEKGFQRAREVASVMNRALENAHDESAYLDNLKKELANGNDALRNEDARSPFYSALRNTPSFKERNGGNHDPSRMKAVIYSKHFWSGQDRSSSADKRKYGDPDAFRPAPGTGLVDMSRDRNIPRSPTSPGEGFVNFDYGWFGAQTEADADKTVWTHGNHYHAPNGSLGAMHVYESKFRNWSEGYSDFDRGAYVITFIPKSWNTAPDKVKQGWP
- effect of NaCl concentration on enzyme activity (in words): did not show any increase

From patent US5736356A, “Transglutaminase originating from Crassostrea gigas” (Ajinomoto Co., Inc., priority 1994, dated 1998)
